# Assay results taken from IntAct's records for PubMed 17666011.
# Key:
# anm11_arath PRMT11 = target: T1, anm11_arath PRMT11 (UniProt Q9SU94)
# T1 sequence: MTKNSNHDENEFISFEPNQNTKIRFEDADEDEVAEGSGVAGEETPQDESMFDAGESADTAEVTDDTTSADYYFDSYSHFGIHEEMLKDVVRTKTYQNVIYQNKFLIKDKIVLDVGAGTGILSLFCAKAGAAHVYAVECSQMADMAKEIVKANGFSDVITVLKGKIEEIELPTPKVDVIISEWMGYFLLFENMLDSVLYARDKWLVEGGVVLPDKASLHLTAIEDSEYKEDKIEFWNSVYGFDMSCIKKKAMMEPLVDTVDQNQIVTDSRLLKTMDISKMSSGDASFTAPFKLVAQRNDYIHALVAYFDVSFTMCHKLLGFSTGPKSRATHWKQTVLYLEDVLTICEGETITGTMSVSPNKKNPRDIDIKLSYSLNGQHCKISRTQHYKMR
# anm12_arath PRMT12 = target: T2, anm12_arath PRMT12 (UniProt O82210)
# T2 sequence: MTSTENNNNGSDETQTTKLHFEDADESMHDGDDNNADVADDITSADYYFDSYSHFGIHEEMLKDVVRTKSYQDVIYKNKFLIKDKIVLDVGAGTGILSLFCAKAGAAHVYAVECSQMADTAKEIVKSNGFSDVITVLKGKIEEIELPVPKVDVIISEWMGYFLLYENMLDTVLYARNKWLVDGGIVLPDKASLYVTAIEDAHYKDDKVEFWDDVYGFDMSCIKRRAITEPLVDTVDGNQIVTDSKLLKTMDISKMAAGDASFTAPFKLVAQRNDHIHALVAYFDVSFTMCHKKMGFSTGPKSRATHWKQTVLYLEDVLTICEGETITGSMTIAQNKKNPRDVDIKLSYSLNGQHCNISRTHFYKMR
substance,measurement,setting,value
Histone H4 (Homo sapiens) (from UniProt P62805) R20K,effect of a mutation on the interaction,anm11_arath PRMT11,disrupting interaction
same,effect of a mutation on the interaction,anm12_arath PRMT12,disrupting interaction
